# Assay results: patent US20190135868
# Legend:
# RTD913 SMCC (synthetic) = test system: T1, RTD913 SMCC (synthetic); assay: EMSA; conditions: stable complex formation, somewhat unstable binding; text p911 gives ~50-100 nM
# T1 sequence 1: KRAHHNALERXRRDXIKDS
# T1 sequence 2: KRRTHNXLERXRRNELKRS
# [1] = test system: T2, RTD84 (stapled sDBD) (synthetic); assay: EMSA; conditions: text p911 gives EC50 ~50-100 nM
# T2 sequence 1: KRXHHNXLERKRRDHIKDS
# T2 sequence 2: KRRTHNXLERXRRNELKRS
sequence,measurement,setting,value
CACGTG (double strand) [E-box probe (E1)],EC50,RTD913 SMCC (synthetic),20 nM
same,Kd,[1],50 nM
